Test system: T1, O=C1C[C@@H](c2ccc(O)cc2)Oc2cc(O)cc(O)c21
T1 construct: MBP fusion (pMAL-c5X) from E. coli BL21(DE3)pLysS, MBP tag cut off by factor Xa
Assay: UPLC-Q-TOF/MS of dihydrokaempferol formed; Michaelis-Menten fit
Type: biochemical, Carthamus tinctorius
Settings: 1 mM 2-oxoglutaric acid, 40 μM FeSO4, 2 mg/ml ascorbic acid, 100 mM tricine pH 7.5, 30 °C, naringenin 10-800 μM, unit misprinted as 'Mm'

Chain of CtF3H (Carthamus tinctorius) (chain, as listed by the source): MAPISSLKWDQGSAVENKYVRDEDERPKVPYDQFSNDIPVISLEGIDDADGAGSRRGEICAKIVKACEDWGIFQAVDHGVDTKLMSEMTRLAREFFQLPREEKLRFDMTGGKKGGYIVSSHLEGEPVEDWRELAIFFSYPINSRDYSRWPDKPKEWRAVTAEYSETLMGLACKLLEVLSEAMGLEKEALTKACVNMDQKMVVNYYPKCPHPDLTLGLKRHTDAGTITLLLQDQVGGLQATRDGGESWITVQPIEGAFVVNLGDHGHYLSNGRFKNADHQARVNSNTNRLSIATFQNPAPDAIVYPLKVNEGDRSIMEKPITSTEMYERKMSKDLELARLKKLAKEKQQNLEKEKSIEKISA

## CtF3H (Carthamus tinctorius)
  Km: 43.75 ± 7.12 µM

Reference: publication PMC4902928, “Molecular characterization of flavanone 3-hydroxylase gene and flavonoid accumulation in two chemotyped safflower lines in response to methyl jasmonate stimulation” (BMC Plant Biology, 2016)
